Measured values from PMC3718736.

Target: VHH2-Fc antibody (VHH C2 fused to the Fc of human IgG1) (llama (Lama glama))
Experiment: SPR; Biacore 3000; […] (10 mM acetate pH 3.5); […]

VHH2-Fc antibody (VHH C2 fused to the Fc of human IgG1) (llama (Lama glama)), sequence (heavy, as listed by the source): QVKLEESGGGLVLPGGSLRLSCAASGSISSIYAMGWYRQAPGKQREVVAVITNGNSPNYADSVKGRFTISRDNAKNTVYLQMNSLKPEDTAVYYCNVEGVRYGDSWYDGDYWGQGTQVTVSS

“α-cobratoxin (from UniProt P01391 1-71) (natural protein)” showed a koff of 5e-05 s⁻¹.
